The subject of data set [1] is FAH 5.3 TALEN right (3') (synthetic construct). As to the kind of experiment: cell_activity. As to conditions: TALEN pair with HDR oligo (HindIII) in RG-KO pig fibroblasts, 16 bp spacer.
Data set [2] relates to FAH 5.3 TALEN left (5') (synthetic construct). As to the kind of experiment: cell_activity. As to conditions: TALEN pair with HDR oligo (HindIII) in RG-KO pig fibroblasts, 16 bp spacer.

These results are taken from patent US20190045761.

In data set [1], “GGTATGTCCCAGACC (double strand) [FAH 5.3 TALEN 3' half-site]” returned an activity (% of colonies positive) of 5.3.

“TCAGGGGCAAGGAGACT (double strand) [FAH 5.3 TALEN 5' half-site]” had an activity (% of colonies positive) in data set [2] of 5.3.
